Assay results from US20180111972A1 (Stanford University, published 2018).
Where two headings read alike, the source gives them in different places.

B1: scPDGF, single-chain version of wild-type PDGF-BB, soluble, FLAG and hexahistidine tags (ligand)
chain: IAEPAMIAECKTRTEVFEISRRLIDRTNANFLVWPPCVEVQRCSGCCNNRNVQCRPTQVQLRPVQVRKIEIVRKKPIFKKATVTLEDHLACKCETVAAGSTSGSGKSSEGKGIAEPAMIAECKTRTEVFEISRRLIDRTNANFLVWPPCVEVQRCSGCCNNRNVQCRPTQVQLRPVQVRKIEIVRKKPIFKKATVTLEDHLACKCETVAA
B2: PVGS, soluble, FLAG and hexahistidine tags (designed binder)
chain: DYKDDDDKIAEPAMIAECHPIETLVDILQEYPDEIGYIFKPSCVPLMRCGGCCNNRNVQCRPTEESNITMQIMRIKPHRGQHIGEMSFLQHNKCRCETVAAGGGGSGGGGSGGGGSGGGGSEVVKFMDVYQRSYCKTRTEVFEISRRLIDATNANFLVWPPCVEVQRCSGCCNHEGLECVPTQVQLRPVQVRKIEFVRKKPIFKKATVTLEDHLACECRPKKDHHHHHH
notes: Secreted from S. cerevisiae YVH10 at 20 C and treated with Endo Hf
B3: scVEGFwt, single-chain version of VEGF-A, soluble, FLAG and hexahistidine tags (ligand)
chain: DYKDDDDKEVVKFMDVYQRSYCHPIETLVDIFQEYPDEIEYIFKPSCVPLMRCGGCCNDEGLECVPTEESNITMQIMRIKPHQGQHIGEMSFLQHNKCECRPKKDGSTSGSGKSSEGKGEVVKFMDVYQRSYCHPIETLVDIFQEYPDEIEYIFKPSCVPLMRCGGCCNDEGLECVPTEESNITMQIMRIKPHQGQHIGEMSFLQHNKCECRPKKDHHHHHH
notes: Expressed in Pichia pastoris GS115; also called single-chain VEGF-A
B4: PDGFRβ-His (residues 1-314 of PDGFR-β with C-terminal hexahistidine tag) (receptor)
chain: LVVTPPGPELVLNVSSTFVLTCSGSAPVVWERMSQEPPQEMAKAQDGTFSSVLTLTNLTGLDTGEYFCTHNDSRGLETDERKRLYIFVPDPTVGFLPNDAEELFIFLTEITEITIPCRVTDPQLVVTLHEKKGDVALPVPYDHQRGFSGIFEDRSYICKTTIGDREVDSDAYYVYRLQVSSINVSVNAVQTVVRQGENITLMCIVIGNEVVNFEWTYPRKESGRLVEPVTDFLLDMPYHIRSILHIPSAELEDSGTYTCNVTESVNDHQDEKAINITVVESGHHHHHH
notes: range 1-314; Monovalent form, expressed in FreeStyle 293-F cells; also called PDGRβ-His; PDGFR-His

Legend:
[1] = molecular target: B4; assay: KinExA Kinetics Injection; could not be accurately determined because of the fast equilibrium time
[2] = molecular target: B4; assay: KinExA; calculated, could not be accurately determined because of the fast equilibrium time
[3] = molecular target: PDGFRβ on DiscoveRx PathHunter U2OS PDGFRβ reporter cells (UniProt P09619 33-1106, limits assumed); assay: cell-based or functional assay
[4] = molecular target: B4; assay: KinExA, equilibrium titration in solution, n-curve analysis
Description: (§1) For KinExA measurements, a constant amount of PDGF/VEGF ligand is titrated with differing concentrations of PDGRβ-His or VEGFR2-His. The solutions are incubated for an appropriate amount of time to allow the ligand-receptor binding reaction to reach equilibrium. The solution is then briefly exposed to a solid support containing immobilized PDGFR or VEGFR, which captures unbound ligand. The amount of ligand bound to the solid support is then detected using a fluorescently-labeled antibody. […] For each binding interaction measured, curves for two concentrations of the constant ligand are performed. By performing two experiments with fixed ligand concentrations above and below the Kd, and fitting both sets of data with a nonlinear regression analysis, a more accurate measurement for the affinity can be obtained.
(§2) Kinetic Exclusion Assay (KinExA). All experiments were performed on a KinExA 3200 instrument with siliconized flow cell (Sapidyne Instruments Inc). […] 30 μg of receptor was incubated in 1 ml of 50 mM sodium bicarbonate, 0.5 M sodium citrate buffer, pH 8.3, for 2 hr at room temperature with rocking. Beads were allowed to settle by gravity and liquid removed. Beads were blocked by incubating in 1 ml of 10 mg/ml BSA in 1 M Tris buffer, pH 8.0, for 1 hr at room temperature with rocking, and stored in blocking buffer at 4° C. for up to one week until use. Running buffer contained PBS with 10 mM imidazole and 0.02% sodium azide. Samples were prepared in running buffer with 1 mg/ml BSA. Binding reactions were prepared with a fixed concentration of PDGF/VEGF ligands and dilution series of PDGFR or VEGFR. Captured PDGF/VEGF ligands were detected using a Dylight 649-conjugated anti-FLAG antibody (Rockland) at 1:1000 dilution in sample buffer. Kinetic experiments were performed with the “Kinetics Injection” method defined in the KinExA software. Data were analyzed with KinExA Pro Software.

[5] = molecular target: B4; assay: KinExA Kinetics Injection
Description: (§3) Additionally, the kinetic parameter kₒₙ can be determined by using a “kinetics injection” experiment. A constant concentration of PDGF/VEGF ligand is injected with an equal volume of differing concentrations of PDGRβ-His or VEGFR2-His. The two solutions are allowed to mix briefly (several seconds) in the time required for the instrument to deliver the mixture to the detection bead column. The pre-equilibrium concentrations of free ligand is fit to the standard bimolecular rate equation to obtain kₒₙ.
(§4) Kinetic Exclusion Assay (KinExA). All experiments were performed on a KinExA 3200 instrument with siliconized flow cell (Sapidyne Instruments Inc). […] 30 μg of receptor was incubated in 1 ml of 50 mM sodium bicarbonate, 0.5 M sodium citrate buffer, pH 8.3, for 2 hr at room temperature with rocking. Beads were allowed to settle by gravity and liquid removed. Beads were blocked by incubating in 1 ml of 10 mg/ml BSA in 1 M Tris buffer, pH 8.0, for 1 hr at room temperature with rocking, and stored in blocking buffer at 4° C. for up to one week until use. Running buffer contained PBS with 10 mM imidazole and 0.02% sodium azide. Samples were prepared in running buffer with 1 mg/ml BSA. Binding reactions were prepared with a fixed concentration of PDGF/VEGF ligands and dilution series of PDGFR or VEGFR. Captured PDGF/VEGF ligands were detected using a Dylight 649-conjugated anti-FLAG antibody (Rockland) at 1:1000 dilution in sample buffer. Kinetic experiments were performed with the “Kinetics Injection” method defined in the KinExA software. Data were analyzed with KinExA Pro Software. The Kd was determined from a global fit of two concentration curves using the “n-curve analysis” tool and the titrant concentrations as reference. […] The kₒₙ was calculated as a fit of the pre-equilibrium free ligand concentrations to the bimolecular binding equation using the “Kinetics Injection” tool.

[6] = molecular target: T1, VEGFR2-His (residues 1-764 of VEGFR2, Ig-like domains 1-7, with hexahistidine tag) (human, UniProt P35968 20-764); assay: KinExA Kinetics Injection
T1 construct: range 1-764; Monomeric form, expressed in FreeStyle 293-F cells; also called VEGFR-His
Description: as §3, §4

[7] = molecular target: T2, mouse VEGFR on SVR murine angiosarcoma endothelial cells (mouse); assay: flow cytometry titration of the soluble FLAG-tagged protein on SVR cells, anti-FLAG detection
T2 construct: whole, on cells
Description: (§5) To test binding to VEGFR, human umbilical vein endothelial cells (HUVECs) and murine angiosarcoma endothelial cells (SVR) were used.
(§6) Cell-binding assay. Varying concentrations of scPDGF, scVEGF, and PDGF/VEGF ligands were incubated with 25,000 PDGFR- or VEGFR-expressing cells in binding buffer (20 mM Tris pH 7.5 with 1 mM MgCl₂, 1 mM MnCl₂, 2 mM CaCl₂, 100 mM NaCl, and 1 mg/ml BSA) for 5 hr (BJ-5ta, NIH/3T3) or 3 hr (HUVEC, SVR) at 4° C. Cells were washed and pelleted, then incubated with 1:100 R-PE-conjugated anti-FLAG antibody (Prozyme) for 15 min on ice. Cells were washed, pelleted, and resuspended in binding buffer immediately before analysis by flow cytometry using BD Accuri C6. Flow cytometry data were analyzed using BD Accuri C6 software, and statistical analysis was performed using GraphPad Prism 6.

[8] = molecular target: T2, mouse VEGFR on SVR murine angiosarcoma …; assay: flow cytometry on SVR cells, soluble ligand titrated 3 h at 4 C, anti-FLAG-PE
Description: as §5, §6

[9] = molecular target: T3, human VEGFR on human umbilical vein endothelial cells (HUVECs) (human, UniProt P35968 20-1356); assay: flow cytometry titration of the soluble FLAG-tagged protein on HUVECs, anti-FLAG detection
T3 construct: The phosphorylation blots on these cells detect VEGFR2
Description: as §5, §6

[10] = molecular target: T3, human VEGFR on human umbilical vein …; assay: flow cytometry on HUVECs
Description: as §5, §6

[11] = molecular target: B4; assay: KinExA, calculated from Kd and kon
Description: (§7) By performing two experiments with fixed ligand concentrations above and below the Kd, and fitting both sets of data with a nonlinear regression analysis, a more accurate measurement for the affinity can be obtained.
as §3, §4

[12] = molecular target: T1, VEGFR2-His (residues 1-764 of VEGFR2, …); assay: KinExA, calculated from Kd and kon
Description: as §7, §3, §4

[13] = molecular target: T2, mouse VEGFR on SVR murine angiosarcoma …; assay: flow cytometry on SVR cells
Description: as §5, §6

[14] = molecular target: B4; assay: KinExA
Description: as §1
(§8) Kinetic Exclusion Assay (KinExA). All experiments were performed on a KinExA 3200 instrument with siliconized flow cell (Sapidyne Instruments Inc). […] 30 μg of receptor was incubated in 1 ml of 50 mM sodium bicarbonate, 0.5 M sodium citrate buffer, pH 8.3, for 2 hr at room temperature with rocking. Beads were allowed to settle by gravity and liquid removed. […] Captured PDGF/VEGF ligands were detected using a Dylight 649-conjugated anti-FLAG antibody (Rockland) at 1:1000 dilution in sample buffer. […] Data were analyzed with KinExA Pro Software.

[15] = molecular target: T1, VEGFR2-His (residues 1-764 of VEGFR2, …); assay: KinExA
Description: as §1, §8

[16] = molecular target: T3, human VEGFR on human umbilical vein …; assay: cell-based or functional assay
[17] = molecular target: T1, VEGFR2-His (residues 1-764 of VEGFR2, …); assay: KinExA, equilibrium titration in solution, n-curve analysis
Description: as §1, §2

[18] = molecular target: T3, human VEGFR on human umbilical vein …; assay: flow cytometry on HUVECs, soluble ligand titrated 3 h at 4 C, anti-FLAG-PE
Description: as §5, §6

[19] = molecular target: T3, human VEGFR on human umbilical vein …; assay: as above; remark: listed apart in the source
scPDGF, yeast-displayed = molecular target: T4, scPDGF, yeast-displayed (human); assay: yeast surface display of scPDGF, flow cytometry titration of PDGFRβ-His, anti-His detection
T4 chain: B1 chain
Description: Cells were incubated in large enough volumes to avoid ligand depletion and appropriate time to reach equilibrium. During the last hour of incubation, yeast were incubated with 1:250 dilution of chicken anti-c-Myc (Invitrogen) in PBSA. […] Yeast were washed, pelleted, and resuspended in PBSA immediately before analysis by flow cytometry using BD FACSCalibur or BD Accuri C6. Flow cytometry data were analyzed using FlowJo (v7.6.1 and v10, Treestar) or BD Accuri C6 software. Statistical analysis was performed using GraphPad Prism 6.
Bound protein was detected using fluorescently-labeled anti-His and anti-mouse-Fc antibodies.

T2 sequence (P35918 20-1345): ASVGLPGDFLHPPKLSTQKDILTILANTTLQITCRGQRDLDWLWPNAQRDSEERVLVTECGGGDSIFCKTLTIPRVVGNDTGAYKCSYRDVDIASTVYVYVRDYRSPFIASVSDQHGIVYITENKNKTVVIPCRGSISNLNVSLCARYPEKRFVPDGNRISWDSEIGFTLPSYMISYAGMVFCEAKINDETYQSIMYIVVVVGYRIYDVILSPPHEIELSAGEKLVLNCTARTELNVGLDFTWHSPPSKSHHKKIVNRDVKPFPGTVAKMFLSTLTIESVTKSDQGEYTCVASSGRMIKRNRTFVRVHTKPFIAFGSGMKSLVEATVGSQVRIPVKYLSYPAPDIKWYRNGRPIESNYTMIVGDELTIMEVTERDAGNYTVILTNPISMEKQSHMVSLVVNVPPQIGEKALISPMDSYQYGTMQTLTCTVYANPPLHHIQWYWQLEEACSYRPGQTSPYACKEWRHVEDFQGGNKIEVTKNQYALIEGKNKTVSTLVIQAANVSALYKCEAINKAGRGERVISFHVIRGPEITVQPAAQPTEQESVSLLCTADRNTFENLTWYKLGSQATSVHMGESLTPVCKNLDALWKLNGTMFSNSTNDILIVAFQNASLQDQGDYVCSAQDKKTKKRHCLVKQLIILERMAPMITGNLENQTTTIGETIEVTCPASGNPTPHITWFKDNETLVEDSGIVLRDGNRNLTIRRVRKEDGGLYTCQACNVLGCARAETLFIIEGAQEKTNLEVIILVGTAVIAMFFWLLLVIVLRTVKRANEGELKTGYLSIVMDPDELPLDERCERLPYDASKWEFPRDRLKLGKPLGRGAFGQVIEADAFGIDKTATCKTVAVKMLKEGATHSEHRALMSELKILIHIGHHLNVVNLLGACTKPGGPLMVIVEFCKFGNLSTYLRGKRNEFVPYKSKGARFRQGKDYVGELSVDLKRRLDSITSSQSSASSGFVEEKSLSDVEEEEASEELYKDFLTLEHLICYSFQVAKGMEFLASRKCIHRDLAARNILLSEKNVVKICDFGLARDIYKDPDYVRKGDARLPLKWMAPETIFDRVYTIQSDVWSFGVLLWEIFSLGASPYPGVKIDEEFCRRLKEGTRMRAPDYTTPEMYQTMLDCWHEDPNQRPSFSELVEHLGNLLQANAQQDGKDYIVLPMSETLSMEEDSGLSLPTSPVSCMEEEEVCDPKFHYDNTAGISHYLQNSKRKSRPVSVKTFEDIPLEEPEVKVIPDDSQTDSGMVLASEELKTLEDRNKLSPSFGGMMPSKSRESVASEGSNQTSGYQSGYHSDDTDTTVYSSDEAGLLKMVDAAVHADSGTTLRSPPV
T1 sequence (P35968 other isoform, or with tags, fused parts or gaps limits assumed, form in doubt): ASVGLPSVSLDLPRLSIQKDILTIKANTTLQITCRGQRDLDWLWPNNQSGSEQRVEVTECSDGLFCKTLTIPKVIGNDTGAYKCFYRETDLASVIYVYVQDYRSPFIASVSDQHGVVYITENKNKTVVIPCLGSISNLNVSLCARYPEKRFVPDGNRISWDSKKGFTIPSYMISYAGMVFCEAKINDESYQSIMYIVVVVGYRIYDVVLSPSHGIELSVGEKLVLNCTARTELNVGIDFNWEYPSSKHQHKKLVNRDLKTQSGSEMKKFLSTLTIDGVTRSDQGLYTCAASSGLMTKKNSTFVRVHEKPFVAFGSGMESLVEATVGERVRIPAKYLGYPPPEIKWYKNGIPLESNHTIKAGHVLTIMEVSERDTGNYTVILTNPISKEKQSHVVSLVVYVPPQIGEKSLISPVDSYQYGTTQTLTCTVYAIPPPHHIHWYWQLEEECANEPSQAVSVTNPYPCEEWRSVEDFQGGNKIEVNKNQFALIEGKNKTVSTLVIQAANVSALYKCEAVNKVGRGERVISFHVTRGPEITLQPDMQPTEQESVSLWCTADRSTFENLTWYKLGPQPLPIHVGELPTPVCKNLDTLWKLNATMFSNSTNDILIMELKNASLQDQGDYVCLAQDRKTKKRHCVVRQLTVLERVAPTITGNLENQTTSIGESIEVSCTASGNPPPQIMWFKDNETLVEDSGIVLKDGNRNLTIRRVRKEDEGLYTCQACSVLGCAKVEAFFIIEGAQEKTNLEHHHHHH
T3 sequence (P35968 20-1356 limits assumed): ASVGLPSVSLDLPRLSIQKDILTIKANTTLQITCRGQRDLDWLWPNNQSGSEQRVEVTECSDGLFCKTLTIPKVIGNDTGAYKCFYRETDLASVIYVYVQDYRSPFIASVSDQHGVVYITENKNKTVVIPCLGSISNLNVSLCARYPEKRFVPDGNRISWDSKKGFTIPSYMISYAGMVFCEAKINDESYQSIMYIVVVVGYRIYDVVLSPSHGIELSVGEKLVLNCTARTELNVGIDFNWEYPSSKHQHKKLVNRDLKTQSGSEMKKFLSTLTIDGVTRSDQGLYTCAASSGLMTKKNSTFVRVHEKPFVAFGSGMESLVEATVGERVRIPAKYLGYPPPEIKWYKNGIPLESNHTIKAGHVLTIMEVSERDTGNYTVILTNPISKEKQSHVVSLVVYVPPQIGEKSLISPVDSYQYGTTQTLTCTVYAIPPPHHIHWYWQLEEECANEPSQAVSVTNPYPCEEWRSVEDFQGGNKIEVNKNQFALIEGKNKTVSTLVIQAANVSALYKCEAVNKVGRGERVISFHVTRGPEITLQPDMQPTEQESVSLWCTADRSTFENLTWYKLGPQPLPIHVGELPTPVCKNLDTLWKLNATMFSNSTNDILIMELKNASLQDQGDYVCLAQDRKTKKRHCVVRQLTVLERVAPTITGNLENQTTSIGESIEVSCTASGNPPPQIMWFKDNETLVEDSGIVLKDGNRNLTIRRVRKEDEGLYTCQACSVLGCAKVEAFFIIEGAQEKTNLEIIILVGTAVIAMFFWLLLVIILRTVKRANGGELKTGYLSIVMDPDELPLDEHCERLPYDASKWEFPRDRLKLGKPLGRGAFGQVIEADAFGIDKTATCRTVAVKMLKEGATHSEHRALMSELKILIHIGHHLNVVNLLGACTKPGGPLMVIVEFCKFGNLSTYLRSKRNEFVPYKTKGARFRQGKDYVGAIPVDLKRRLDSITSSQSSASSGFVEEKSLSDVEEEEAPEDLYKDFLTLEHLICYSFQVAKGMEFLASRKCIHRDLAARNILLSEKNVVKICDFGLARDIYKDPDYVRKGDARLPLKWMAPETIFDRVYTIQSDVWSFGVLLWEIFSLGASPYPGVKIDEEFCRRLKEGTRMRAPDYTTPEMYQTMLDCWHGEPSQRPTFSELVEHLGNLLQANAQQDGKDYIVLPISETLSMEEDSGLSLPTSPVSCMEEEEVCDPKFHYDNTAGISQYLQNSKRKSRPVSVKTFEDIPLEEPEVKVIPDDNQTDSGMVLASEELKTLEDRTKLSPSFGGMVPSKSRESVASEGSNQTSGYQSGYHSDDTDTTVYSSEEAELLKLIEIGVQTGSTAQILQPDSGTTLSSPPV

B1 was tested, and the kon [1] was greater than 1.7e+07 M⁻¹ s⁻¹, the koff [2] was greater than 0.31 s⁻¹ and the “EC50 of receptor activation, DiscoveRx PathHunter PDGFR reporter cells, chemiluminescence” value [3] was 0.14 nM. It also gave a Kd [4] of 18 nM.

For B2, the kon [5] was 2e+07 M⁻¹ s⁻¹, the kon [6] was 680000 M⁻¹ s⁻¹ and the “EC50 (read off the curve)” value [7] was roughly 0.5 nM. For the same binder, the Kd [8] was 0.45 nM, the “EC50 (read off the curve)” value [9] was roughly 0.8 nM and the “fold improvement in affinity compared to PV6” value (from here on “fold improvement in affinity”) [10] was 14 fold. The koff [11] was 0.00013 s⁻¹, the koff [12] was 9.6e-06 s⁻¹ and the “fold improvement in affinity” value [13] was 78 fold. The “fold improvement in binding affinity compared to PV6” value [14] was 130 fold, the “fold improvement in affinity” value [15] was 2700 fold and the “IC50 of inhibition of stimulation by 0.5 nM PDGF-BB, PathHunter PDGFRβ reporter cells” value [3] was 1.1 nM. The “IC50 of inhibition of HUVEC proliferation induced by 0.5 nM VEGF165, alamarBlue” value [16] was 1.2 nM, the Kd [4] was 0.0067 nM and the Kd [17] was 0.014 nM. It also gave a Kd [18] of 0.77 nM.

B3 was tested, and the Kd [8] was 10 nM, the “EC50 (read off the curve)” value [9] was roughly 10 nM and the Kd [19] was 1.5 nM. For the same binder, the Kd [18] was 18 nM.

For B4, the “EC50 (read off the curve)” value (scPDGF, yeast-displayed) was roughly 300 nM.
